Laboratory results taken from paper PMC8348266, “Intrinsically disordered electronegative clusters improve stability and binding specificity of RNA-binding proteins”.

How the values were obtained:
[1] = target: T1, Nop15 2xENC (Saccharomyces cerevisiae, UniProt P53927 39-49+39-191, internal_change); experiment: fluorescence polarization; ND, too weak for detection; Nop15 FP: 10 nM RNA/DNA, 20 mM Tris-HCl pH 7.5, 0.02% Tween 20, 150 or 50 mM NaCl; SRSF3 FP: 10 mM MES pH 5.5, 50 mM Arg/Glu, 0.1 mM TCEP, 0.02% Tween 20; incubated 37 °C 30 min then 25 °C 20 min, read at RT; details: protein: recombinant; tags: N-terminal SUMO tag (pSMT3) cleaved with Ulp1; label: 5' fluorescein; single strand
T1 sequence: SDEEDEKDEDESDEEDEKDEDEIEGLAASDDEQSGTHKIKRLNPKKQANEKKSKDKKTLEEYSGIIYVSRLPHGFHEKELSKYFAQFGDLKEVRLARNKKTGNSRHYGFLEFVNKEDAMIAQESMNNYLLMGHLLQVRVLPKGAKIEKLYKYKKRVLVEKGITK

[2] = target: T2, Nop15 no-linker (Saccharomyces cerevisiae, UniProt P53927 40-191, del60-76); experiment: as above; details: protein: recombinant; tags: N-terminal SUMO tag (pSMT3) cleaved with Ulp1; label: 5' fluorescein; single strand
T2 sequence: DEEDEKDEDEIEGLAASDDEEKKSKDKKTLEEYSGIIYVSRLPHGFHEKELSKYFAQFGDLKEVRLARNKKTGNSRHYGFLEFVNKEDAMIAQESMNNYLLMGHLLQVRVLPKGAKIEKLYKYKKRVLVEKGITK

[3] = target: T3, Nop15 no-ENC (Saccharomyces cerevisiae, UniProt P53927 =SGGSSGKSGSG+50-191, internal_change); experiment: fluorescence polarization; 50 mM NaCl; Nop15 FP: 10 nM RNA/DNA, 20 mM Tris-HCl pH 7.5, 0.02% Tween 20, 150 or 50 mM NaCl; SRSF3 FP: 10 mM MES pH 5.5, 50 mM Arg/Glu, 0.1 mM TCEP, 0.02% Tween 20; incubated 37 °C 30 min then 25 °C 20 min, read at RT; details: protein: recombinant; tags: N-terminal SUMO tag (pSMT3) cleaved with Ulp1; label: 5' fluorescein; single strand
T3 sequence: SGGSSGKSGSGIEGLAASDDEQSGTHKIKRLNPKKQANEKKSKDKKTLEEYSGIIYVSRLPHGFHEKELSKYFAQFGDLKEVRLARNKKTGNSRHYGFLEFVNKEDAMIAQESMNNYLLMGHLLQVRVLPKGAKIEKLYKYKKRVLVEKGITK

[4] = target: T4, Nop15 WT (1xENC) (Saccharomyces cerevisiae, UniProt P53927 40-191); experiment: fluorescence polarization; 150 mM NaCl; Nop15 FP: 10 nM RNA/DNA, 20 mM Tris-HCl pH 7.5, 0.02% Tween 20, 150 or 50 mM NaCl; SRSF3 FP: 10 mM MES pH 5.5, 50 mM Arg/Glu, 0.1 mM TCEP, 0.02% Tween 20; incubated 37 °C 30 min then 25 °C 20 min, read at RT; details: protein: recombinant, tags: N-terminal SUMO tag (pSMT3) cleaved with Ulp1, label: 5' fluorescein
T4 sequence: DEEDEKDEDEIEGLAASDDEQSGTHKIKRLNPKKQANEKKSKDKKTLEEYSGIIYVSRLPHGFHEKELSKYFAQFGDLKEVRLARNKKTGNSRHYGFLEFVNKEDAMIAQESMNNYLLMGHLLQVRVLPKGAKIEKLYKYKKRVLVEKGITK

[5] = target: T3, Nop15 no-ENC; experiment: as above; details: protein: recombinant, tags: N-terminal SUMO tag (pSMT3) cleaved with Ulp1, label: 5' fluorescein
[6] = target: T2, Nop15 no-linker; experiment: as above; details: protein: recombinant, tags: N-terminal SUMO tag (pSMT3) cleaved with Ulp1, label: 5' fluorescein
[7] = target: T1, Nop15 2xENC; experiment: as above; details: protein: recombinant; tags: N-terminal SUMO tag (pSMT3) cleaved with Ulp1; label: 5' fluorescein; hairpin with 8 bp stem and 9-nt single-stranded region
[8] = hairpin with 8 bp stem and 9-nt single-stranded region

Binder: AGAGAGAGA (ssDNA) [nonspecific ssDNA]
- binding result [1]: no binding
- binding result [2]: no binding
- Kd [3]: 1160 ± 150 nM

Binder: AGAGAGAGAGUCUCUCUCUC (structured_RNA) [nonspecific stem-loop RNA]
- Kd ([4]; hairpin, 8 bp stem): 945 ± 65 nM
- Kd ([5]; hairpin, 8 bp stem): 244 ± 18 nM
- Kd ([6]; hairpin, 8 bp stem): 14100 ± 1400 nM

Binder: UGAGUGAUACUCUUUGGAGUUAACUUGAAAUUGCU (structured_RNA) [ITS2 III.A 26-60]
- Kd [4, 8]: 215 ± 34 nM
- Kd [7]: 1870 ± 270 nM
- Kd [5, 8]: 173 ± 32 nM
- Kd [6, 8]: 583 ± 90 nM

Binder: UUCAGAGCA (ssRNA) [nonspecific ssRNA]
- binding result [1]: no binding
- binding result [2]: no binding
- Kd [3]: 427 ± 98 nM
